The source of these data is patent US10590193 (dated 2020).

The Kd is a measure of binding affinity in units of concentration. Read a low Kd as higher affinity. As a reminder, the EC50 is the concentration needed to bring the measured effect to its halfway point. A word on the koff: it is the first-order rate constant of dissociation. Low readings indicate slow dissociation, high ones fast dissociation.

The target of assay [1] is T1, human VEGF165 (human, UniProt P15692).
T1 chain: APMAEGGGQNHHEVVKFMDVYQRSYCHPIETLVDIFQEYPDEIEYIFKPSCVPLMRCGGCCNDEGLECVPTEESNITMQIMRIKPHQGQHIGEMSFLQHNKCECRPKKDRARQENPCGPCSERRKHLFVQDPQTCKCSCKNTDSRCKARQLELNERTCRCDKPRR
As to the kind of experiment: SPR, pH 7.4.

The target of assay [2] is T1, human VEGF165. As to the kind of experiment: SPR, pH 5.
Assay [3] deals with T2, mouse VEGF164 (mouse, UniProt Q00731).
T2 chain: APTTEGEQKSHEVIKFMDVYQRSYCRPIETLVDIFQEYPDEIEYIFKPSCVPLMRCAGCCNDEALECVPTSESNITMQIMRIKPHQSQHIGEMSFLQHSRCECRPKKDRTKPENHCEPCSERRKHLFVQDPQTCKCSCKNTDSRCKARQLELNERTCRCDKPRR
Nature of the assay: SPR, pH 5.

Assay [4] addresses T3, rat VEGF164 (rat, UniProt P16612).
T3 chain: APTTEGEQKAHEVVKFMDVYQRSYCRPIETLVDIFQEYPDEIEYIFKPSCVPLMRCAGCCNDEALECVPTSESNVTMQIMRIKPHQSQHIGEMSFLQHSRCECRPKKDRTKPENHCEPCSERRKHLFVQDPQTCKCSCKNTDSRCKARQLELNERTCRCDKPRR
Nature of the assay: SPR, pH 5. In general terms: In SPR one partner is held on a chip, and binding of the other changes the refractive index at the surface.

The next assay concerns the target T4, human VEGF121 (human, UniProt P15692).
T4 chain: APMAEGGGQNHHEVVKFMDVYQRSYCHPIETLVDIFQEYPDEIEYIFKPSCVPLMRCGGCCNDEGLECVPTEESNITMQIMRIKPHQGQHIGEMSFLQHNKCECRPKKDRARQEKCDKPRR
As to the kind of experiment: SPR, pH 5.

Assay [5] deals with T1, human VEGF165. Nature of the assay: SPR, pH 5.
Assay [6] has as its target T1, human VEGF165. Nature of the assay: competition, VEGFR2 ELISA. (In general: In an ELISA, binding on a coated surface is turned into a signal by an enzyme label.)
Another assay concerns the target T5, human PlGF (human, UniProt P49763).
T5 chain: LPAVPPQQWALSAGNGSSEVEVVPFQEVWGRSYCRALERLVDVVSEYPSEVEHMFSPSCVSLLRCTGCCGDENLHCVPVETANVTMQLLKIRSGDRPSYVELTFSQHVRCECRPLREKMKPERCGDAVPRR
Nature of the assay: SPR, pH 5.

A further assay deals with T6, human VEGF110 (human, UniProt P15692).
T6 chain: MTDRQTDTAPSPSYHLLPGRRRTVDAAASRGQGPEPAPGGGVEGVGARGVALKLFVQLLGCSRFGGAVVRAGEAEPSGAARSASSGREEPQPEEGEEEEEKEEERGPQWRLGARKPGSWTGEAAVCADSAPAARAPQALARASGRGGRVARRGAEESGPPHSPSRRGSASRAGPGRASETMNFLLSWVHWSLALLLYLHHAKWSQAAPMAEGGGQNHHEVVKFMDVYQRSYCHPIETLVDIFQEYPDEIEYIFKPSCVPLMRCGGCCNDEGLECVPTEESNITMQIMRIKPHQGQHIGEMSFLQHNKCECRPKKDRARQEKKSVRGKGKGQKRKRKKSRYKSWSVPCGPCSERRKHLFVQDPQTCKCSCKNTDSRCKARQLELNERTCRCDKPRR
As to the kind of experiment: SPR, pH 5.

Assay [7] has as its target T1, human VEGF165. As to the kind of experiment: SPR, pH 7.4.
Assay [8] deals with T1, human VEGF165. Nature of the assay: SPR, pH 7.4.
Assay [9] has as its target T3, rat VEGF164. As to the kind of experiment: SPR, pH 5.
Assay [10] has as its target T1, human VEGF165. As to the kind of experiment: SPR, pH 5.
Assay [11] concerns the target T2, mouse VEGF164. Nature of the assay: SPR, pH 5.
The target in assay [12] is T2, mouse VEGF164. As to the kind of experiment: SPR, pH 7.4.
Assay [13] concerns the target T3, rat VEGF164. Nature of the assay: SPR, pH 7.4.

B1: 435-min (antibody, V domains shown)
VH: EVQLVESGGGLVQPGGSLRLSCAASGFSLNTNYWMCWVRQAPGKGLEWVSCMYTGSYNRAYYASWAKGRFTISRDNSKNTLYLQMNSLRAEDTAVYYCAKGSNWYSDLWGQGTLVTVSS
VL: EIVMTQSPSTLSASVGDRVIITCQASQSIGSSLAWYQQKPGKAPKLLIYTAANLASGVPSRFSGSGSGAEFTLTISSLQPDDFATYYCQNFATSDTVTFGQGTKLTVLG
For B1, in the assay with human VEGF165 [1], the equilibrium dissociation constant (Kd) is 28.9 nM. The binding result with human VEGF165 [2] is on record as “no binding”.

B2: 511-max (antibody, V domains shown)
VH: EVQLVESGGGLVQPGGSLRLSCTVSGFSLNTYYMNWVRQAPGKGLEWVGIIAPDDTTYYASWAKSRSTISRDTSKNTVYLQMNSLRAEDTAVYYCARSGDTTAWGADIWGQGTLVTVSS
VL: EIVMTQSPSTLSASVGDRVIITCQASQSINIWLSWYQQKPGKAPKLLIYRASTLASGVPSRFSGSGSGTEFTLTISSLQPDDFATYYCQANYAYSAGYGAAFGQGTKLTVLG
On to B2, for which the Kd in the assay with mouse VEGF164 [3] was 0.0613 nM; in the assay with rat VEGF164 [4] it was 0.106 nM; in the assay with human VEGF165 [1], 0.0856 nM; with human VEGF121, 0.214 nM; with human VEGF165 [5] it was 0.0667 nM; with human VEGF110 it was 0.197 nM. The molecule also displayed a 50% effective concentration (EC50) with human VEGF165 [6] of 0.822 nM. Moreover, the binding result with human PlGF is on record as “no binding”.

B3: 610-max (antibody, V domains shown)
VH: EVQLVESGGGLVQPGGSLRLSCTASGIDFSGAYYMGWVRQAPGKGLEWVGYIDYDGDRYYASWAKGRFTISKDTSKNTVYLQMNSLRAEDTAVYYCARSDYSSGWGTDIWGQGTLVTVSS
VL: EIVMTQSPSTLSASVGDRVIITCQASQSISSWLSWYQQKPGKAPKLLIYQASTLASGVPSRFSGSGSGTEFTLTISSLQPDDFATYYCQNNYGFRSYGGAFGQGTKLTVLG
B3: the koff in the assay with human VEGF165 [7] was determined as 35.7 s⁻¹. This molecule had a dissociation constant (Kd) with human VEGF165 [5] of 1.18 nM.

B4: 610-min (antibody, V domains shown)
VH: EVQLVESGGGLVQPGGSLRLSCAASGIDFSGAYYMGWVRQAPGKGLEWVSYIDYDGDRYYASWAKGRFTISRDNSKNTLYLQMNSLRAEDTAVYYCAKSDYSSGWGTDIWGQGTLVTVSS
VL: EIVMTQSPSTLSASVGDRVIITCQASQSISSWLSWYQQKPGKAPKLLIYQASTLASGVPSRFSGSGSGAEFTLTISSLQPDDFATYYCQNNYGFRSYGGAFGQGTKLTVLG
In the assay with human VEGF165 [5], B4 showed a Kd of 10.6 nM. Moreover, the binding result with human VEGF165 [8] is listed as “no binding”.

B5: 578minmax FW1.4_DHP (961) (antibody, V domains shown)
VH: EVQLVESGGGSVQPGGSLRLSCTASGFSLTDYYYMTWVRQAPGKGLEWVGFIDPDDDPYYATWAKGRFTISRDTSKNTVYLQMNSLRAEDTATYYCAGGDHNSGWGLDIWGQGTTVTVSS
VL: EIVMTQSPSTLSASVGDRVIITCQASEIIHSWLAWYQQKPGKAPKLLIYLASTLASGVPSRFSGSGSGAEFTLTISSLQPDDFATYYCQNVYLASTNGANFGQGTKLTVLG
Consider B5, for which the Kd with rat VEGF164 [9] was 0.845 nM; in the assay with human VEGF165 [10], 0.576 nM; in the assay with mouse VEGF164 [11], 0.608 nM.

B6: 578min_max T84N_V89L (1008) (antibody, V domains shown)
VH: EVQLVESGGGLVQPGGSLRLSCTASGFSLTDYYYMTWVRQAPGKGLEWVGFIDPDDDPYYATWAKGRFTISRDNSKNTLYLQMNSLRAEDTAVYYCAGGDHNSGWGLDIWGQGTLVTVSS
VL: EIVMTQSPSTLSASVGDRVIITCQASEIIHSWLAWYQQKPGKAPKLLIYLASTLASGVPSRFSGSGSGAEFTLTISSLQPDDFATYYCQNVYLASTNGANFGQGTKLTVLG
Regarding B6, the dissociation constant (Kd) in the assay with rat VEGF164 [9] stood at 1.89 nM; in the assay with human VEGF165 [10] it was 1.59 nM; with mouse VEGF164 [11], 1.53 nM.

B7: 578minmax (903) (antibody, V domains shown)
VH: EVQLVESGGGLVQPGGSLRLSCTASGFSLTDYYYMTWVRQAPGKGLEWVGFIDPDDDPYYATWAKGRFTISRDTSKNTVYLQMNSLRAEDTAVYYCAGGDHNSGWGLDIWGQGTLVTVSS
VL: EIVMTQSPSTLSASVGDRVIITCQASEIIHSWLAWYQQKPGKAPKLLIYLASTLASGVPSRFSGSGSGAEFTLTISSLQPDDFATYYCQNVYLASTNGANFGQGTKLTVLG
Turning to B7, the equilibrium dissociation constant (Kd) with mouse VEGF164 [12] was 0.0273 nM; with rat VEGF164 [9], 0.748 nM; with human VEGF165 [10], 0.625 nM; in the assay with rat VEGF164 [13] it was 0.0219 nM; in the assay with mouse VEGF164 [11], 0.567 nM.

B8: 578min_max T84N_V89L_DHP (1017) (antibody, V domains shown)
VH: EVQLVESGGGSVQPGGSLRLSCTASGFSLTDYYYMTWVRQAPGKGLEWVGFIDPDDDPYYATWAKGRFTISRDNSKNTLYLQMNSLRAEDTATYYCAGGDHNSGWGLDIWGQGTTVTVSS
VL: EIVMTQSPSTLSASVGDRVIITCQASEIIHSWLAWYQQKPGKAPKLLIYLASTLASGVPSRFSGSGSGAEFTLTISSLQPDDFATYYCQNVYLASTNGANFGQGTKLTVLG
As for B8, the Kd with rat VEGF164 [9] worked out at 1.82 nM; with mouse VEGF164 [11], 1.46 nM.

B9: 375-min (antibody, V domains shown)
VH: EVQLVESGGGLVQPGGSLRLSCAASGFSFTTTDYMCWVRQAPGKGLEWVSCILAGDGSTYYANWAKGRFTISRDNSKNTLYLQMNSLRAEDTAVYYCAKSDPASSWSFALWGQGTLVTVSS
VL: EIVMTQSPSTLSASVGDRVIITCQASENINIWLSWYQQKPGKAPKLLIYQASKLASGVPSRFSGSGSGAEFTLTISSLQPDDFATYYCQNNYSYNRYGAPFGQGTKLTVLG
In the assay with human VEGF165 [7], B9 registered a koff of 3.86 s⁻¹. The Kd in the assay with human VEGF165 [5] amounted to 5.41 nM.

B10: 509-max (antibody, V domains shown)
VH: EVQLVESGGGLVQPGGSLRLSCTASGFSLSSYYMCWVRQAPGKGLEWVGCLDYVGDTDYASWAKGRFTISKDASKNTVYLQMNSLRAEDTAVYYCARTDDSRGWGLNIWGQGTLVTVSS
VL: EIVMTQSPSTLSASVGDRVIITCQASQNIRIWLSWYQQKPGKAPKLLIYKASTLESGVPSRFSGSGSGTEFTLTISSLQPDDFATYYCQNNAHYSTNGGTFGQGTKLTVLG
Take B10: the dissociation constant (Kd) in the assay with mouse VEGF164 [3] worked out at 1.45 nM; with rat VEGF164 [4] it was 1.65 nM; with human VEGF165 [1] it was 0.378 nM; with human VEGF121, 0.335 nM; with human VEGF165 [5], 1.21 nM; in the assay with human VEGF110 it was 0.363 nM. Also, the binding result with human PlGF was “no binding”.
